In paper PMC10563435, “Anti-GARP Antibodies Inhibit Release of TGF-β by Regulatory T Cells via Different Modes of Action, but Do Not Influence Their Function In Vitro” (ImmunoHorizons, 2023):

B1: 28G11 (anti-L-TGF-β / anti-LAP Ab), full-length antibody (antibody, V domains shown)
VH: EVKLVESGGGLVQPGGSLSLSCAASGFTFTDYYMSWVRQPPGKALEWLGFIRNKPNGYTTEYSASVKGRFTISRDNSQSILYLQMNVLRAEDSATYYCARYTGGGYFDYWGQGTTLTVSS
VL: DIQMTQTTSSLSASLGDRLTISCRASQDISNYLNWYQQKPDGTVKLLIYYTSRLHSGVPSRFSGSGSGTDYSLTISNLEQADIATYFCQQGDTLPWTFGGGTKLEIK
notes: A cryo-EM map of its Fab complex is deposited in EMDB, without coordinates; source: HEK293-E6, transiently transfected, purified (protein A MabSelect SuRe)
B2: MHG-8 (anti-L-TGF-β/GARP Ab), full-length antibody (antibody, V domains shown)
VH: QVQLKESGPGLVAPSQSLSITCTVSGFSLTGYGINWVRQPPGKGLEWLGMIWSDGSTDYNSVLTSRLRISKDNSNSQVFLKMNSLQVDDTARYYCARDRNYYDYDGAMDYWGQGTSVTVSS
VL: DIQVTQSSSYLSVSLGDRVTITCKASDHIKNWLAWYQQKPGIAPRLLVSGATSLEAGVPSRFSGSGSGKNFTLSITSLQTEDVATYYCQQYWSTPWTFGGGTTLEIR
notes: source: HEK293-E6, transiently transfected, purified (protein A MabSelect SuRe)
B3: LHG-10 (anti-L-TGF-β/GARP Ab), full-length antibody (antibody, V domains shown)
VH: EVQLVQPGAELRNSGASVKVSCKASGYRFTSYYIDWVRQAPGQGLEWMGRIDPEDGGTKYAQKFQGRVTFTADTSTSTAYVELSSLRSEDTAVYYCARNEWETVVVGDLMYEYEYWGQGTQVTVSS
VL: DIQMTQSPSSLSASLGDRVTITCQASQSISSYLAWYQQKPGQAPNILIYGASRLKTGVPSRFSGSGSGTSFTLTISGLEAEDAGTYYCQQYASVPVTFGQGTKVELK
notes: as for B2
B4: Fab LHG-10 (Fab, V domains shown)
VH: B3 VH
VL: B3 VL
notes: Fab part of the heavy chain of m8; As the light chain of m8; source: HEK293-E6 antibody cleaved with immobilized papain, Fc removed with protein A beads
B5: Fab 28G11 (Fab, V domains shown)
VH: B1 VH
VL: B1 VL
notes: Fab part of the heavy chain of m5; The cryo-EM map is deposited in EMDB, without coordinates; As the light chain of m5; source: HEK293-E6 antibody cleaved with immobilized papain, Fc removed with protein A beads

Tests used:
Conditions in all cases: both partners purified
[1] = target: T1, GARP extracellular domain (aa 20-627), Fc-His part cleaved off (UniProt Q14392); test: BLI; Abs (10 µg/ml) captured for 180 s on AMC or AHC (anti-murine or anti-human IgG Fc capture) tips; 10 µg/ml GARP, GARP/L-TGF-β or L-TGF-β in solution for 180 s, 600 s dissociation; PBS
T1 construct: GARP (LRRC32) extracellular domain, aa 20-627; also called LRRC32; GARP-Fc-His; source: HEK293-E6, transiently transfected, purified from supernatant (Ni-NTA, SEC; Fc-His removed with papain and protein A beads); not shown: Fc (human IgG1), C-terminal, cleaved; His tag, C-terminal, cleaved
T1 sequence (Q14392 20-627): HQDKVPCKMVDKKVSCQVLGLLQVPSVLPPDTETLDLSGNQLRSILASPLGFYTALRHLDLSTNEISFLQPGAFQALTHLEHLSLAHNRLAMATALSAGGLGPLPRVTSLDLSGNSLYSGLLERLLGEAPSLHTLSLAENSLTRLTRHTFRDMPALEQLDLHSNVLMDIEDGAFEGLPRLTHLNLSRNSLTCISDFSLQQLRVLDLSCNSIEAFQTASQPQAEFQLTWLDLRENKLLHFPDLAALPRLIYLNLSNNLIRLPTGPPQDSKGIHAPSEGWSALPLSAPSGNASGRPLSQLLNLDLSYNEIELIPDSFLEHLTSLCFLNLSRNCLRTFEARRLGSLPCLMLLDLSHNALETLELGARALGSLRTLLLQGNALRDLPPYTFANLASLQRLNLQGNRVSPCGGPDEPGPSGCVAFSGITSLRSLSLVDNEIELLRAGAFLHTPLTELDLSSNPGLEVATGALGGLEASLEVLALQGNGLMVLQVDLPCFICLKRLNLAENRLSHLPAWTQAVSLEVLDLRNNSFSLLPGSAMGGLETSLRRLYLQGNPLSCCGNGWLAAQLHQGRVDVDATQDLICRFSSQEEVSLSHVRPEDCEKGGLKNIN

[2] = target: T2, His-L-TGF-β1 (N-terminal His tag followed by aa 30-390 of L-TGF-β1) (Homo sapiens (deposit 8C7H), UniProt P01137); test: as above
T2 construct: latent TGF-β1 (LAP and mature TGF-β), aa 30-390; The introduction says that the proprotein is cleaved by a furin-like convertase into LAP and mTGF-β, which stay noncovalently associated; also called latent form of TGF-β; source: HEK293-E6, transiently transfected, purified from supernatant (Ni-NTA, SEC)
T2 sequence (P01137 30-390): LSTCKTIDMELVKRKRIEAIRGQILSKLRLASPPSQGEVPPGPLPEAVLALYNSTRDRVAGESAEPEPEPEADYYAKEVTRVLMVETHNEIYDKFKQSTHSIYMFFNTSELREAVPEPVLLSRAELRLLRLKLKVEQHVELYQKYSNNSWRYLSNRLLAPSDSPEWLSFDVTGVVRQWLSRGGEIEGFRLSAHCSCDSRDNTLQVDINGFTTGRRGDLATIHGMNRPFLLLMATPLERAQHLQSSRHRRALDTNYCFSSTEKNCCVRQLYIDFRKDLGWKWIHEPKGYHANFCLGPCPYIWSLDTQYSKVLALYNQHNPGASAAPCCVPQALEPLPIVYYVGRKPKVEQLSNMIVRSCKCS

[3] = target: T3, GARP/L-TGF-β complex (recombinant) (Homo sapiens (deposit 8C7H), UniProt Q14392;P01137); test: as above
T3 construct: GARP (LRRC32) extracellular domain, aa 20-627; latent TGF-β1 (LAP and mature TGF-β), aa 30-390; The introduction says that L-TGF-β is linked to GARP by two disulfide bonds and is cleaved into LAP and mTGF-β; also called L-TGF-β/GARP complex; GARP-Fc-His/L-TGF-β; source: HEK293-E6, transiently transfected, purified from supernatant (Ni-NTA, SEC; Fc-His removed with papain and protein A beads); not …

[4] = target: T3, GARP/L-TGF-β complex (recombinant); test: cryo-EM structure; GARP/L-TGF-β incubated 30 min at 4°C with an excess of Fab, complex purified by SEC in 15 mM HEPES (pH 7.5), 100 mM NaCl; LHG-10 map 2.7 Å with atomic model; 28G11 map 7.5 Å with docked models of PDB 6GFF
[5] = target: T4, L-TGF-β1 (aa 30-390), as it stands in the GARP/L-TGF-β complex (UniProt P01137); test: as above
T4 construct: latent TGF-β1 (LAP and mature TGF-β), aa 30-390; Untagged construct, used only within the complex m3; The introduction says it is cleaved into LAP and mTGF-β; also called LAP and mTGF-β; source: HEK293-E6, transiently transfected, purified as the complex with GARP
T4 sequence (P01137 30-390, one chain of several): as the sequence (P01137 30-390) above

Row | Binder | binding result [1] | binding result [2] | binding result [3] | binding result [4] | stoichiometry N [4] | binding result [5]
1 | B1 | no binding (tested: 10 µg/ml) | binds | – | – | – | –
2 | B2 | no binding (tested: 10 µg/ml) | no binding (tested: 10 µg/ml) | binds | – | – | –
3 | B3 | no binding (tested: 10 µg/ml) | no binding (tested: 10 µg/ml) | binds | – | – | –
4 | B4 | – | – | – | binds | – | –
5 | B5 | – | – | – | – | 1 | binds
